Experimental data as given in paper PMC4627693 (Chemistry & biology, 2014).
Where no end group is shown, it is not given here. The star is where a group is joined. Biotin = O=C1N[C@H]2[C@H](CS[C@H]2CCCCC(=O)*)N1; code Z = ethylene glycol unit

Target: c-Src tyrosine kinase (recombinant) (UniProt P00523 1-533)
Assay: cross-linking

B1: Cys-Srctide (Biotin-ZZICGEFRRR) (peptide)
peptide: {Biotin-code Z-code Z}-ICGEFRRR
Question: For B1, which EC50 is on record?
Answer: 63 µM
